# According to the nanobody polyreactivity screen of Harvey et al. (2022):
# Assay: yeast display, Sf9 membrane polyspecificity reagent, FACS + sequencing; frameworks hold sequencing errors
# In short: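 After 36–48 hours of galactose induction, yeast (Saccharomyces cerevisiae BJ5465) displaying a synthetic nanobody library were stained at 4 °C for 1 hour with 10% biotinylated, detergent-solubilized Sf9 membrane reagent. Streptavidin microbeads enriched the stained cells before FACS sorting into low and high (top ~1%) gates on anti-HA and streptavidin fluorescence. Each clone's polyreactivity label reflects its gate of origin.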
row,Sequence,polyreactivity (PSR sort gate)
1,QVQLVESGGGLVQAGGSLRLSCAASGFTFATYAMGWYRQAPGKERELVAAISKSGGSTYYADSVKGRFTISRDNAKNTVYLQMNSLKPEDTAVYYCAKRRSVRYDYWGQGTQVTVSS,high polyreactivity
2,QVQLVESGGGLVQAGGSLRLSCAASGFTFAVYVMGWYRQAPGKERELVAAISRSGGSTYYADSVKGRFTISRDNAKNTVYLQMNSLKPEDTAVYYCNARVWAKYDYWGQGTQVTVSS,high polyreactivity
3,QVQLVESGGGLVQAGGSLRLSCAASGFTFAVYVMGWYRQAPGKERELVATISISVGSTYYADSVKGRFTISRDNAKNTVYLQMNSLKPEDTAVYYCNADPPPEYYPDKDNYWGQGTQVTVSS,low polyreactivity
4,QVQLVESGGGLVQAGGSLRLSCAASGFTFAYAMGWYRQAPGKERELVAAISFSGGSTYYADSVKGRFTISRDNAKNTVYLQMNSLKPEDTAVYYCNKRGGKRSTMDYWGHGTQVTVSS,low polyreactivity
5,QVQLVESGGGLVQAGGSLRLSCAASGFTFAYHAMGWYRQAPGKERELVAGINSSGDGTYYADSVKGRFTISRDNAKNTVYLQMNSLKQEDTAVYYCAADYTGFYQDGSYVDYDYWGQGTQVTVSS,low polyreactivity
6,QVQLVESGGGLVQAGGSLRLSCAASGFTFAYNAMGWYRQAPGKERELVATISWSGGSPYYADSVKGRFTISRDNAKNTVYLQMNSLKPEDTAVYYCATTIFYTYYGLYDYWGQGTQVTVSS,high polyreactivity
7,QVQLVESGGGLVQAGGSLRLSCAASGFTFAYYAMGWYRQAPGKERELVAGISWRGGRTYYADSVKGRFTISRDNAKNTVYLQMNSLKPEDTAVYYCAKQPGNFGRFDYWGQGTQVTVSS,high polyreactivity
8,QVQLVESGGGLVQAGGSLRLSCAASGFTFAYYVMGWYIQAPGKETELVAAISISGARTYYAESVKGRFTISRDNSKNTVYLQMNRLKPEDTAVYYCAADRRTDGHDYWGLGTQVTVSS,high polyreactivity
9,QVQLVESGGGLVQAGGSLRLSCAASGFTFDANAMGWYRQAPGKERELVAAISWSGGSTYYADSVKGRFTISRDNAKNTVYLQMNSLKPEDTAVYYCAARRYSYVGGQGSDYWGQGTKVTVSS,high polyreactivity
10,QVQLVESGGGLVQAGGSLRLSCAASGFTFDAYAMGWYRQAPGKERELVADINYSVGSTTYADSVKVRFTISRDNAKNTVYLQMNSLKPEDTAVYYCAAQGTWYAWDYDYWGQGTQVTVSS,low polyreactivity
11,QVQLVESGGGLVQAGGSLRLSCAASGFTFDDNAMGWYRQAPGKERELVAVITKSGGRTYYADSVKGRFTLSRDNAKNTVYLQMNSLKPEDTAVYYCNADGRNWYYKWYDYWGQGTQVTVSS,low polyreactivity
12,QVQLVESGGGLVQAGGSLRLSCAASGFTFDEKAMGWYRQAPGINYSGASTYYADSVKGRFTISRDNAKNTVYLQMNSLKPEDTAVYYCAAEVVAQMNYWGQGTQVTVSS,low polyreactivity
13,QVQLVESGGGLVQAGGSLRLSCAASGFTFDENAMGWYRQAPGINYSGASTYYADSVKGRFTISRDNATNTVYLQMNSLKPEDTAVYYCAAEVVAQMNYWGQGTQVTVSS,low polyreactivity
14,QVQLVESGGGLVQAGGSLRLSCAASGFTFDFYDMGWYRQAPGKERELVAAISWDGGTTYYADSVKGRFTISRDNAKNTVYLQMNSLKPEDTAVYYCAADDWVYVPTRAWYLYEYWGQGTQVTVSS,low polyreactivity
15,QVQLVESGGGLVQAGGSLRLSCAASGFTFDIYAMGWYRQAPGKERELVADITSGGSTDYADSVKGRFTISRDNAKNTVYLQMNSLKPEDTAVFYCNAAVFYEPEWQYDYWGQGTQVTVSS,low polyreactivity
16,QVQLVESGGGLVQAGGSLRLSCAASGFTFDIYAMGWYRQAPGKERELVADITSGGSTDYADSVKGRFTISRDNAKNTVYVQMNSLKPEDTAVYYSNAAVFYDPEWQYDYWGQGTQVTVSS,low polyreactivity
17,QVQLVESGGGLVQAGGSLRLSCAASGFTFDIYAMGWYRQAPGKERELVATISRSGGTTYYADSVKGRFTISRDNAKNTVYLQMNSLKPEDTAVYYCAAGAYSYRYRYRMDYWGQGTQVTVSS,high polyreactivity
18,QVQLVESGGGLVQAGGSLRLSCAASGFTFDNYAMGWYRQEPGKERELVAAINISGGRTYYADSVKGRFTISRDNAKNTVYLQMNSLKPEDTAVYYCNIYYWYYALDYWGQGTQVTVSS,high polyreactivity
19,QVQLVESGGGLVQAGGSLRLSCAASGFTFDNYTMGWYRQAPGKERELVAAITSSAGSTDYADSVKGRFTISRDNAKNTVYLQMNSLKPEDTAVYYCNDDFLYGTYDYWGQGTQVTVSS,low polyreactivity
20,QVQLVESGGGLVQAGGSLRLSCAASGFTFDNYVMGWYRQAPGKERELVAAISKSGTSTYYADSVKGRFTISRDNAKNTVYLQMNSLKPEDTAVSYCAARQYSQEPYDYWGQGTQVTVSS,high polyreactivity
21,QVQLVESGGGLVQAGGSLRLSCAASGFTFDPYAIGWYRQAPGKERELVAAISISGGRTYYADSVKGRITISRDNAKNTVYVQMISLKPEDSAVYYCAVAQSHYFGGYGYWGQGTKVTVSS,low polyreactivity
22,QVQLVESGGGLVQAGGSLRLSCAASGFTFDPYAMGWYRQAPGKERELVAAISWIGTNTYYADSVKGRFTISRDNAKNTVYLLMNSLKPEDTAVYYCAADGPTIAVGSYDYWGQGTQVTVSS,low polyreactivity

row,Sequence,polyreactivity (PSR sort gate)
1,QVQLVESGGGLVQAGGSLRLSCAASGFTFDQYGMGWYRQAPGKERVLVAGISWGGGTTYYADSVKGRFTISRDNAKNTVYLQMNSLKPEDTAVYYCAAVRPGYPYYGSDYWGQGTQVTVSS,low polyreactivity
2,QVQLVESGGGLVQAGGSLRLSCAASGFTFDRYAMGWYRQAPGKERELVAAISRSGGSTHYADSVKGRFTISRDNAKNTVYLQMNSLKPEDTAVYYCNKRWFYDGYDYWGQGTQVTVSS,high polyreactivity
3,QVQLVESGGGLVQAGGSLRLSCAASGFTFDRYAMGWYRQAPGKERELVAAISRSGGSTHYADSVKGRFTISRDNAKNTVYLQMNSLKPEDTAVYYCNKRWYYDGYDYWGQGTQVTVSS,high polyreactivity
4,QVQLVESGGGLVQAGGSLRLSCAASGFTFDSYAMGWYRQAPGKERELVAAITWDGGSTYYADSVKGRFTISRDNAKNTVYLPMNSLKPEDTAVYYCAAVSGFYDQYDYWGQGTQVTVSS,low polyreactivity
5,QVQLVESGGGLVQAGGSLRLSCAASGFTFDSYAMGWYRQAPGKERELVAAITWDGGSTYYADSVKGRFTISRDNAKNTVYLQMNSLKPEDTAVYYCAADFGTISIDVYSWMDYWGQGTQVTVSS,low polyreactivity
6,QVQLVESGGGLVQAGGSLRLSCAASGFTFDSYAMGWYRQAPGKERELVAAMSYRGGTTYYADSVKGRFTISRDNAKNTGYLQMNSLKPEDTAVYYCNRLWKYGYNYWGQGTQVTVSS,high polyreactivity
7,QVQLVESGGGLVQAGGSLRLSCAASGFTFDSYAMGWYRQAPRKERELVAAITSDGSTYYADSVKGRFTISRDNAKNNVYLQMNSLKAEDTAVYYCAADGISLYATAYDYWGQGTQVTVSS,low polyreactivity
8,QVQLVESGGGLVQAGGSLRLSCAASGFTFDWNSMGCYRQAPGQERELVATIRWSVGSTYYADSVKGRFTISRDNAKNTVYLQMNSLKPEDTAVYYCAADSQWSYPDYPGEYAYDYWGQGTQVTVSS,low polyreactivity
9,QVQLVESGGGLVQAGGSLRLSCAASGFTFDWYAMGWYRQAPGKERELVAAMYYADSVKGRFTISRDNAKNTVYLQMNSLKPEDTAVYYCNAGGYFFPTVYHYGYWGQGTQVTVSS,low polyreactivity
10,QVQLVESGGGLVQAGGSLRLSCAASGFTFDYNAMGWYRQAPGKDRELVAAISESGGSTYYADSVKGRFTISRDNAKNTVYLQMNSLKPEDTAVYYCPTDFPVYYDYGYWGQGTQVTVSS,high polyreactivity
11,QVQLVESGGGLVQAGGSLRLSCAASGFTFDYNPMGWYRQAPGKERELVAAISNTGDSTYYADSVKGRFTISRDNAKNTDYLQMNSLKPDDTAVYYCAADCLFDVYWEYDYWGQGTQVTVSS,low polyreactivity
12,QVQLVESGGGLVQAGGSLRLSCAASGFTFDYYAMGWYRQAPGKERELVAVITSRGGSTFYADSVKGRFTISRDNAKNTVYLQMNSLKPEDTAVYYCARQHYRLFRPYDYWGQGTQVTVSS,high polyreactivity
13,QVQLVESGGGLVQAGGSLRLSCAASGFTFDYYTMGWYRQAPGKERELVATITRSAGRTYYADSVKGRFTISRDNAKNTVYLQMNSLKPEDTAVYYCNADAYVYFDDGDYWGQGTQVTVSS,low polyreactivity
14,QVQLVESGGGLVQAGGSLRLSCAASGFTFEDYAMGWYRQAPGTERELVAAISSRGTSTYYADSVKGRFTISRDNAKNTVYLQMNSLKPEDTAVYYFNKRGWYPYGYWGQGTQVTVSS,high polyreactivity
15,QVQLVESGGGLVQAGGSLRLSCAASGFTFEENAMGWYRPAPGKERELVAAINWSGGNTYYADSVKGRFTISRDNAKNPDSLQMNSLKPEDSAVYYCNAAGAGDDYDYWGQGTQVTVSS,high polyreactivity
16,QVQLVESGGGLVQAGGSLRLSCAASGFTFEGYAMGGYRQAPGKERELVAAINGSGGSTYYADSVKGRFTISRDYAKNTVYLQMNSLKPEDTAVYYCAKSGYGNRGFDYWGQGTQVTVSS,low polyreactivity
17,QVQLVESGGGLVQAGGSLRLSCAASGFTFEKNAMGWYRQAPGKERELVAAISRGGSTYADSVKGRFTISRDNAKNTVYLQMNSLKPEDTAVYYCAGDTVYIFSSAINGEFGYWGQGTQVTVSS,low polyreactivity
18,QVQLVESGGGLVQAGGSLRLSCAASGFTFERNAMGWYRQAPGKERELVATISQSGTNTYYADSVKGRFTISRDNAKNTVYLQMNSLKPEDTAVYYCNARYLFYRYDYWGQGTQVTVSS,low polyreactivity
19,QVQLVESGGGLVQAGGSLRLSCAASGFTFEYYAMGWYRPAPGKERELVADITTSSAGTYYADSVKGRFTISRDNAKNTVYLQMNSLKPEDTAVYYCNRDDLNTGEDLDYWGQGTQVTVSS,low polyreactivity
20,QVQLVESGGGLVQAGGSLRLSCAASGFTFFDYVMGWYRQAPGKERELVAAISSSGGSTNYADSVKGRFTISRDHAKNTVYLQMNSLKPEDTAVYYCNKVTYGYAYWRYDGYDYWGQGTQVTVSS,low polyreactivity
21,QVQLVESGGGLVQAGGSLRLSCAASGFTFFIYAMGWYTQAPGKEREFVAAITGSGGSTYYADSEKGRFTISRDNAKNTVYLQMNSLKTEVTAVYYCATGYWGRRRGGWRSGYWGQGTQVTVSS,high polyreactivity
